According to publication PMC8690919 (Theranostics, 2022):

Assays:
[1] = target: T1, SARS-CoV-2 spike protein (Wuhan strain), full length, expressed on MDCK cells (SARS-CoV-2, UniProt P0DTC2); assay: flow cytometry on cells; conditions: one partner purified
T1 construct: source: MDCK-SIAT1 cells stably transfected (lentiviral vector), on cells

[2] = target: RBD-VLP (SARS-CoV-2, UniProt P0DTC2); assay: ELISA; conditions: both partners purified

Binder | binding result [1] | binding result [2]
EY-6A human monoclonal antibody (IgG1) (antibody, V domains shown) VH: EVQLVESGGGVVQPGRSLRLSCAASAFTFSSYDMHWVRQAPGKGLEWVAVISYDGSNKYYADSVKGRFTISRDNSKNTLYLQMNSLRAEDTAVYYCAKDGGKLWVYYFDYWGQGTLVTVSS VL: not shown | binds | binds
FI-3A human monoclonal antibody (IgG1) (antibody, V domains shown) VH: EVQLLESGGGLIQPGGSLRLSCAASGFTVSSNYMSWVRQAPGKGLEWVSVIYSGGSTYYADSVKGRFTISRDNSKNTLYLQMNSLRAEDTAVYYCARDHVRPGMNIWGQGTMVTVSS VL: not shown | binds | binds
REGN10933 monoclonal antibody (antibody, V domains shown, source: ExpiCHO cells, purified (MabSelect SuRe, desalted)) VH: QVQLVESGGGLVKPGGSLRLSCAASGFTFSDYYMSWIRQAPGKGLEWVSYITYSGSTIYYADSVKGRFTISRDNAKSSLYLQMNSLRAEDTAVYYCARDRGTTMVPFDYWGQGTLVTVSS VL: DIQMTQSPSSLSASVGDRVTITCQASQDITNYLNWYQQKPGKAPKLLIYAASNLETGVPSRFSGSGSGTDFTFTISGLQPEDIATYYCQQYDNLPLTFGGGTKVEIK | – | binds
FD-11A human monoclonal antibody (IgG1) (antibody, V domains shown) VH: EVQLVESGGGVVQPGRSLRLSCAASGFTFSSYGMHWVRQAPGKGLEWVAVIWYDGSNKYYADSVKGRFTISRDNSKNTLYLQMNSLRAEDTAVYYCAKGPDILTGYYNYYYYGMDVWGQGTMVTVSS VL: QSVLTQPPSVSGAPGQRVTISCTGSSSNIGAGYDVHWYQQLPGTAPKLLIYGNSNRPSGVPDRFSGSKSGTSASLAITGLQAEDEADYYCQSYDSSLSGFYVVFGGGTKLTVL | binds | binds
REGN10987 monoclonal antibody (antibody, V domains shown, also called REGN10977 (as printed once)) VH: QVQLVESGGGVVQPGRSLRLSCAASGFTFSNYAMYWVRQAPGKGLEWVAVISYDGSNKYYADSVKGRFTISRDNSKNTLYLQMNSLRTEDTAVYYCASGSDYGDYLLVYWGQGTLVTVSS VL: QSALTQPASVSGSPGQSITISCTGTSSDVGGYNYVSWYQQHPGKAPKLMIYDVSKRPSGVSNRFSGSKSGNTASLTISGLQSEDEADYYCNSLTSISTWVFGGGTKLTVL | – | binds
FD-5D human monoclonal antibody (IgG1) (antibody, V domains shown, source: ExpiCHO cells, purified (MabSelect SuRe, desalted)) VH: EVQLVESGGGLVQPGGSLRLSCAASGFTFSSYSMNWVRQAPGKGLEWVSYISSSSSTIYYADSVKGRFTISRDNAKNSLYLQMNSLRAEDTAVYYCASPGGITAAGTSVLFGYYGMDVWGQGTTVTVSS VL: not shown | – | binds
